Source: US20260248932A1, “CATIONIC AMPHIPHILIC POLYPEPTIDE FOR DELIVERING RNA AND METHOD FOR PREPARING THE SAME” (INHA UNIVERSITY RESEARCH AND BUSINESS FOUNDATION, priority 2023, published 2026)

Assay: Critical association concentration (CAC) by static light scattering
Type: physicochemical
Settings: 10 mM HEPES buffer (pH 7.3), 0.001~4 mg/ml
Protocol: For the light scattered intensity of the polypeptide, the static light scattering was measured at 25° C. and a detection angle of 173° using Zetasizer Pro (Malvern Panalytical, Worcestershire, UK) equipped with a He—Ne laser (2=633 nm). Samples in 10 mM HEPES buffer (pH 7.3) were analyzed using a low-volume quartz cuvette (ZEN2112, Malvern Panalytic).
The critical association concentration (hereinafter referred to as CAC) of peptides measured by static light scattering was analyzed. […] Homopolypeptide (DDDDDDDD) used as the control group was well dissolved in buffer (pH 7.3), but no CAC appeared up to treatment concentration of 4 mg/mL.

DDDDDDDD [octameric homopolypeptide of L-Asp(DET) units used as the control group]
critical association concentration (CAC): > 4 mg/mL
